In patent publication EP4477673A1, “IMMUNOCONJUGATE AND USE THEREOF” (priority 2022, dated 2023):
Read-outs that look alike come from different tables or passages of the source.

Assays:
[1] = target: T1, Human PD-1 antigen protein (Sino Biological, 10377-H08H) (human, UniProt Q15116 25-167); assay: SPR Biacore 8K, antibody captured by anti-human IgG (Fc), PD-1 as analyte
[2] = target: T2, cynomolgus monkey PD-1 antigen protein (Sino Biological, 90311-C08H) (cynomolgus monkey, UniProt B0LAJ3 25-170); assay: SPR Biacore 8K, antibody captured by anti-human IgG (Fc), cynomolgus PD-1 as analyte
T2 construct: not shown: Tag of the vendor's construct (Sino Biological 90311-C08H, probably a C-terminal His tag)
T2 sequence (B0LAJ3 entry or part of it C08H C08H limits assumed, form in doubt): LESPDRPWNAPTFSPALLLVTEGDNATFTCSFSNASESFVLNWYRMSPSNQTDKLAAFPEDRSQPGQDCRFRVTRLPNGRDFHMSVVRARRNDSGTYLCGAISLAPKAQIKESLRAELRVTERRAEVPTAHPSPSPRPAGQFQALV

human PD-1 [3] = target: T3, human PD-1 (human, UniProt Q15116 25-288); assay: cell-based or functional assay
T3 sequence (Q15116 25-288 limits assumed): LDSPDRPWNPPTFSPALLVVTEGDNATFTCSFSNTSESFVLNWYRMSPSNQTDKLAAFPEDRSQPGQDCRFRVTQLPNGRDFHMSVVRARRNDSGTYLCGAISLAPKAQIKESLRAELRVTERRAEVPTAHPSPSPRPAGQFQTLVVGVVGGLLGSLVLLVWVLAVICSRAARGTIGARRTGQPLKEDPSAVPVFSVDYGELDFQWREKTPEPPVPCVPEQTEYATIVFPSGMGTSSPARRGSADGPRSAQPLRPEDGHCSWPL

human PD-1 [4] = target: T3, human PD-1; assay: cell-based or functional assay; remark: listed apart in the source
[5] = target: T1, Human PD-1 antigen protein (Sino …); assay: SPR Biacore 8K, fusion protein captured by anti-human IgG (Fc), human PD-1 as analyte
[6] = target: T4, human IL-2Rα receptor protein (Sino Biological, 10165-H08H) (human, UniProt P01589 22-213); assay: SPR Biacore 8K, fusion protein captured by anti-human IgG (Fc), IL-2Rα as analyte
T4 construct: also called CD25
T4 sequence (looked up): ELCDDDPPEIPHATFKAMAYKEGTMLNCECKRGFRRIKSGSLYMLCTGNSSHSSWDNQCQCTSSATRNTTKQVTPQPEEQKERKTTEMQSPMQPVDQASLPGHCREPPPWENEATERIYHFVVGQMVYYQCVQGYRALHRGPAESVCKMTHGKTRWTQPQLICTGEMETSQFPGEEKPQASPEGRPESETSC

[7] = target: T5, human IL-2Rβ/γ receptor heterodimer protein (Acrosystem, ILG-H5283) (human, UniProt P14784 27-239; P31785 23-262, limits assumed); assay: SPR Biacore 8K, fusion protein captured by anti-human IgG (Fc), human IL-2Rβ/γ heterodimer as analyte
T5 sequence (looked up) 1: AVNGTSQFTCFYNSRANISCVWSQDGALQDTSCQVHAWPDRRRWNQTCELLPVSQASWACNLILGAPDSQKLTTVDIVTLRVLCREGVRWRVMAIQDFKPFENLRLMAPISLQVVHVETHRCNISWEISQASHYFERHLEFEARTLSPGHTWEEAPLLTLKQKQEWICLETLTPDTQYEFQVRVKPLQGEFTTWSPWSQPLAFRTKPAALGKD
T5 sequence (looked up) 2: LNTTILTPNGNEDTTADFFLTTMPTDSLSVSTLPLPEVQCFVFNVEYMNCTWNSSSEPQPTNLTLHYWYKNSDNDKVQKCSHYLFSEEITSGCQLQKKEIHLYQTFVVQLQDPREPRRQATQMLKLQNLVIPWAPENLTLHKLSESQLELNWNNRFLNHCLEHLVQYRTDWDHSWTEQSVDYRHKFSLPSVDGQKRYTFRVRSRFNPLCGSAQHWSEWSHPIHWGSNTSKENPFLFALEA

human PD-1 [8] = target: T3, human PD-1; assay: cell-based or functional assay; remark: listed apart in the source
human PD-1 [9] = target: T3, human PD-1; assay: cell-based or functional assay; remark: listed apart in the source
IL-2Rβ/γ on M07e cells = target: T6, IL-2Rβ/γ on M07e cells (human, UniProt P14784 27-551; P31785 23-369); assay: cell-based or functional assay
T6 sequence (looked up) 1: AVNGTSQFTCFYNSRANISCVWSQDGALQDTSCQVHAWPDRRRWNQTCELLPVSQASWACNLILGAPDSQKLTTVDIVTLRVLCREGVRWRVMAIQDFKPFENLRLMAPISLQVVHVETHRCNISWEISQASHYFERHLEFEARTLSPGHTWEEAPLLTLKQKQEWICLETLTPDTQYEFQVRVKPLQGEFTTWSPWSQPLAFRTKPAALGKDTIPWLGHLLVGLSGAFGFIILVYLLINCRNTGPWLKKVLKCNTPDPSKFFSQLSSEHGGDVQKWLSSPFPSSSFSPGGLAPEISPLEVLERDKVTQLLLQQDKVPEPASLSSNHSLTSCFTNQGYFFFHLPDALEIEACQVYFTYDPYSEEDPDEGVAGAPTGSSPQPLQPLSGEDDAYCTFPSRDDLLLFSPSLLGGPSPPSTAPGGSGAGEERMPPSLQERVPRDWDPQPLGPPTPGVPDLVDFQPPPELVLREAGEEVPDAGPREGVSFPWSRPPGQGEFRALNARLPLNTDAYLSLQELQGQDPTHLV
T6 sequence (looked up) 2: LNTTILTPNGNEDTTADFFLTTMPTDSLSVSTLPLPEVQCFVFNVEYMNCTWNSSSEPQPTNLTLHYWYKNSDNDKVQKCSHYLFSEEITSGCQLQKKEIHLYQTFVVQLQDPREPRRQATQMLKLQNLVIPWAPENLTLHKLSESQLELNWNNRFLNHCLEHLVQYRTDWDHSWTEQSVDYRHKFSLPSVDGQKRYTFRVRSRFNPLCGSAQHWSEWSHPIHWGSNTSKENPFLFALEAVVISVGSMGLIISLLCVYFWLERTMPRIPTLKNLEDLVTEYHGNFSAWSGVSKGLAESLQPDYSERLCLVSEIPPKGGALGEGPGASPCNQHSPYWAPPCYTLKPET

[10] = target: T5, human IL-2Rβ/γ receptor heterodimer …; assay: SPR Biacore 8K; affinity for human IL-2Rβ/γ against A-PC

T1 sequence (Q15116 25-167 limits assumed): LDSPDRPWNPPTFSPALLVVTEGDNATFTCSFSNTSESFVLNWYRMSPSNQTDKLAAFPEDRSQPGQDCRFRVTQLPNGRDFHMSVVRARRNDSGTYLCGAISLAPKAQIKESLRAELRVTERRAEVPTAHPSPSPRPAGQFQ

B1: A17m0902_hIgG4 (antibody, V domains shown)
VH: EVQLVESGGGLVQPGGSLRLSCAASGLTFSDYSMSWYRQAPGKGRELVAIISGSGVITHYVDSVKGRFTISRDNAKNTLYLQMRSLRAEDTAVYYCRAVSDWEDYWGQGTQVTVSS
notes: VHH-Fc antibody; not shown: human IgG4 Fc with hinge region and S228P (EU)
Kd [1]: 6.09 nM | koff [1]: 0.00177 s⁻¹ | kon [1]: 291000 M⁻¹ s⁻¹ | Kd [2]: 3.28 nM | koff [2]: 0.00108 s⁻¹ | kon [2]: 328000 M⁻¹ s⁻¹ | IC50, PD-1/PD-L1 NFAT reporter gene system (human PD-1 [3]): 0.435 nM

B2: A-N88D (Fc fusion)
chain (part 1 of 2): EVQLVESGGGLVQPGGSLRLSCAASGLTFSDYSMSWYRQAPGKGRELVAIISGSGVITHYVDSVKGRFTISRDNAKNTLYLQMRSLRAEDTAVYYCRAVSDWEDYWGQGTQVTVSS
chain (part 2 of 2): GGGGSGGGGSGGGGSAPASSSTKKTQLQLEHLLLDLQMILQGISNYKNPKLTRMLTAKFYMPKKATELKHLQCLEEELKPLEEVLQGAQSKNFHLRPRDLISDINVIVLELKGSETTFMCEYADETATIVEFLNRWITFAQSIISTLT
chain: EVQLVESGGGLVQPGGSLRLSCAASGLTFSDYSMSWYRQAPGKGRELVAIISGSGVITHYVDSVKGRFTISRDNAKNTLYLQMRSLRAEDTAVYYCRAVSDWEDYWGQGTQVTVSS
notes: also called PD-1-IL-2v (N88D); not shown: IgG1 hinge (C220S) + Fc Knob chain (L234A, L235A, S354C, T366W, EU); D356/L358 or E356/M358 ver; IgG1 hinge (C220S) + Fc Hole chain (L234A, L235A, Y349C, T366S, L368A, Y407V; may have H435R, Y436F; EU)
M07e-hPD-1 cell proliferation ratio (%) at 0.0001 nM (human PD-1 [4]): 0.8% | M07e-hPD-1 cell proliferation ratio (%) at 0.001 nM (human PD-1 [4]): 0% | M07e-hPD-1 cell proliferation ratio (%) at 0.01 nM (human PD-1 [4]): 4.8% | M07e-hPD-1 cell proliferation ratio (%) at 0.1 nM (human PD-1 [4]): 18.3% | M07e-hPD-1 cell proliferation ratio (%) at 1 nM (human PD-1 [4]): 21.3% | M07e-hPD-1 cell proliferation ratio (%) at 10 nM (human PD-1 [4]): 25.2% | M07e-hPD-1 cell proliferation ratio (%) at 100 nM (human PD-1 [4]): 31.1% | M07e-hPD-1 cell proliferation ratio (%) at 1000 nM (human PD-1 [4]): 45.5% | Kd [5]: 17.6 nM | koff [5]: 0.00175 s⁻¹ | kon [5]: 99800 M⁻¹ s⁻¹ | binding result [6]: no binding | Kd [7]: 3.38 nM | koff [7]: 0.000215 s⁻¹ | kon [7]: 63700 M⁻¹ s⁻¹ | M07e-hPD-1 cell proliferation ratio (%) at 0.0001 nM (human PD-1 [8]): 5.2% | M07e-hPD-1 cell proliferation ratio (%) at 0.001 nM (human PD-1 [8]): 4.4% | M07e-hPD-1 cell proliferation ratio (%) at 0.01 nM (human PD-1 [8]): 13.4% | M07e-hPD-1 cell proliferation ratio (%) at 0.1 nM (human PD-1 [8]): 30.8% | M07e-hPD-1 cell proliferation ratio (%) at 1 nM (human PD-1 [8]): 36% | M07e-hPD-1 cell proliferation ratio (%) at 10 nM (human PD-1 [8]): 35.5% | M07e-hPD-1 cell proliferation ratio (%) at 100 nM (human PD-1 [8]): 41.1% | M07e-hPD-1 cell proliferation ratio (%) at 1000 nM (human PD-1 [8]): 55.4% | M07e-hPD-1 cell proliferation activity (%) at 0.0001 nM (human PD-1 [9]): 2.8% | M07e-hPD-1 cell proliferation activity (%) at 0.001 nM (human PD-1 [9]): 3.3% | M07e-hPD-1 cell proliferation activity (%) at 0.01 nM (human PD-1 [9]): 18.1% | M07e-hPD-1 cell proliferation activity (%) at 0.1 nM (human PD-1 [9]): 32.1% | M07e-hPD-1 cell proliferation activity (%) at 1 nM (human PD-1 [9]): 41.8% | M07e-hPD-1 cell proliferation activity (%) at 10 nM (human PD-1 [9]): 45% | M07e-hPD-1 cell proliferation activity (%) at 100 nM (human PD-1 [9]): 61.1% | M07e-hPD-1 cell proliferation activity (%) at 1000 nM (human PD-1 [9]): 66.9% | M07e cell proliferation activity (%) at 0.46 nM (IL-2Rβ/γ on M07e cells): -1.7% | M07e cell proliferation activity (%) at 1.4 nM (IL-2Rβ/γ on M07e cells): -1.1% | M07e cell proliferation activity (%) at 4.1 nM (IL-2Rβ/γ on M07e cells): -1.5% | M07e cell proliferation activity (%) at 12 nM (IL-2Rβ/γ on M07e cells): -1.9% | M07e cell proliferation activity (%) at 37 nM (IL-2Rβ/γ on M07e cells): -2.8% | M07e cell proliferation activity (%) at 111 nM (IL-2Rβ/γ on M07e cells): -1.8% | M07e cell proliferation activity (%) at 333 nM (IL-2Rβ/γ on M07e cells): 0.2% | M07e cell proliferation activity (%) at 1000 nM (IL-2Rβ/γ on M07e cells): 14.6% | fold lower affinity than A-PC [10]: ~13 fold
